Test results: patent publication US20250368754A1 (KANAPH THERAPEUTICS, published 2025)

T1: human FAP on HEK293-hFAP cells (human, UniProt Q12884 1-760)
T1 construct: whole, on cells; also called human FAP-expressing cell line
T1 sequence (looked up): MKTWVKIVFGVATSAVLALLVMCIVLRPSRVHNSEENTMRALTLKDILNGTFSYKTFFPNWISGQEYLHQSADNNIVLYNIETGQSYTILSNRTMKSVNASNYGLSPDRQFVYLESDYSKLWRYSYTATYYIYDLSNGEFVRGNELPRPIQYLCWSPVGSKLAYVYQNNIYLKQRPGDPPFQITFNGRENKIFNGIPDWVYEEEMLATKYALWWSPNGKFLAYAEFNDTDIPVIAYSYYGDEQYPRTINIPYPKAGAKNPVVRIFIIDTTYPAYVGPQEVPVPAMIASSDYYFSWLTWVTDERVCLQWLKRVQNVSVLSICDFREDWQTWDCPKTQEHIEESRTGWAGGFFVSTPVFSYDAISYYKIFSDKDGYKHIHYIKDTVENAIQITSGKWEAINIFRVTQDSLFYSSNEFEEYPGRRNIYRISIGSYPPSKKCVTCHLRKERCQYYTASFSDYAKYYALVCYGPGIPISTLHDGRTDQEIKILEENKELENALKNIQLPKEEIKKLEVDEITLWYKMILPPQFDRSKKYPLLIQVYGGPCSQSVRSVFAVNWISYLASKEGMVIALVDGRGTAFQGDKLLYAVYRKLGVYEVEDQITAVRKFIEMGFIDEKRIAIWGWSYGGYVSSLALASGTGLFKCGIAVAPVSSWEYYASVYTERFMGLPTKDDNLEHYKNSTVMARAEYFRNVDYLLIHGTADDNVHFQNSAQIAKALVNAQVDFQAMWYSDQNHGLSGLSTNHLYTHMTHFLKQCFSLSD

T2: human DcR3 (human, UniProt O95407 30-300)
T2 construct: also called LIGHT receptor DcR3
T2 sequence (looked up): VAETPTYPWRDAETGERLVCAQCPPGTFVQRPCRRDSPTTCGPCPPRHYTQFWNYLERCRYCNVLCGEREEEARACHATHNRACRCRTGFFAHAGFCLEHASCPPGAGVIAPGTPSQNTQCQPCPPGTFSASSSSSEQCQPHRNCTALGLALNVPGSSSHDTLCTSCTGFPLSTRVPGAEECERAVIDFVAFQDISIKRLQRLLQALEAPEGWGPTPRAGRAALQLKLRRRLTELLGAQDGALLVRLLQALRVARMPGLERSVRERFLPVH

T3: recombinant human herpes virus entry mediator (HVEM) (human, UniProt Q92956 39-202)
T3 construct: neither construct is described; also called human HVEM; recombinant human HVEM protein (R&D systems)
T3 sequence (looked up): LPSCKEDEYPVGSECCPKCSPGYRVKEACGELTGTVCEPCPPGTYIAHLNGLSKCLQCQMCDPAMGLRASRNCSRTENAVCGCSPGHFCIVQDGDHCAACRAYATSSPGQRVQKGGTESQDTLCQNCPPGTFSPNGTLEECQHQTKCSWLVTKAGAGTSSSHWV

B1: T3.18 (anti-hu FAP/hu scLIGHT(GGSG)-LTb2, hu IgG1 DANG) (bispecific antibody)
heavy: QVQLVQSGAEVKKPGASVKVSCKTSRYTFTEYTIHWVRQAPGQRLEWIGGINPNNGIPNYNQKFKGRVTITVDTSASTAYMELSSLRSEDTAVYYCARRRIAYGYDEGHAMDYWGQGTLVTVSSASTKGPSVFPLAPSSKSTSGGTAALGCLVKDYFPEPVTVSWNSGALTSGVHTFPAVLQSSGLYSLSSVVTVPSSSLGTQTYICNVNHKPSNTKVDKKVEPKSCDKTHTCPPCPAPELLGGPSVFLFPPKPKDTLMISRTPEVTCVVVAVSHEDPEVKFNWYVDGVEVHNAKTKPREEQYGSTYRVVSVLTVLHQDWLNGKEYKCKVSNKALPAPIEKTISKAKGQPREPQVYTLPPSRDELTKNQVSLWCLVKGFYPSDIAVEWESNGQPENNYKTTPPVLDSDGSFFLYSKLTVDKSRWQQGNVFSCSVMHEALHNHYTQKSLSLSPGK
light: not shown
chain: not shown
notes: Knob-into-hole; LIGHT-LTb2 heterotrimer with GGSG linker after LIGHT
B2: T3.10 (anti-hu FAP/null, hu IgG1 DANG) (antibody)
heavy: B1 heavy
light: not shown
chain: not shown
notes: One-armed anti-FAP knob-into-hole antibody without LIGHT; used as the control for LIGHT activity

What was measured:
[1] = target: T1, human FAP on HEK293-hFAP cells; assay: flow cytometry on HEK293-hFAP cells, 1 ug protein per 1x10^5 cells, anti-human IgG detection (axis TMEkine-PE)
Method: (§1) Specifically, the cell line was prepared by suspending in a FACS buffer solution at 1×10⁵ cells/100 μL, and treated with 1 μg each of T3.10, T3.01, T3.05, T3.06, T3.14, and T3.18. The cells were washed twice with a FACS buffer solution. The cells were stained with an anti-human IgG antibody (Biolegend). The negative control sample was stained only with an anti-human IgG antibody (Biolegend). The expression ratio of the stained cells was measured using BD LSR and analyzed using FlowJo software.

[2] = target: T1, human FAP on HEK293-hFAP cells; assay: flow cytometry on HEK293-hFAP cells, 1 µg protein, anti-human IgG detection
Method: as §1

human LTβR on A375 cells [3] = target: T4, human LTβR on A375 cells (human, UniProt P36941 31-435); assay: cell-based or functional assay
human DcR3 = target: T2, human DcR3; assay: SPR, human DcR3 immobilised on CM5, fusion protein as analyte, 1:1 binding model
Method: (§2) Specifically, the surface of the CM5 chip was activated with a 1:1 mixture of […], and 5 to 6 μg/mL of human DcR3 was immobilized for 60 seconds at a rate of 10 μL/min. The remaining active ester groups were blocked with 1 M ethanolamine. T3.01, T3.07, T3.09, T3.14, and T3.18 were each diluted to 50 nM or 200 nM in 1×HBS-EP+buffer solution and diluted by serial dilution. The diluted fusion proteins were reacted at a rate of 30 μL/min. The association and dissociation times were 180 seconds and 400 seconds, respectively. After the dissociation step, stabilization was performed for 60 seconds, and then the regeneration step was performed for 30 seconds with a 10 mM glycine pH 1.5 solution at a rate of 30 μL/min.

[4] = target: T5, recombinant human lymphotoxin beta receptor (LTβR) (human, UniProt P36941 28-227, limits assumed); assay: SPR, human LTβR immobilised on CM5, fusion protein as analyte, 1:1 binding model
T5 construct: neither construct is described; also called human LTβR; recombinant human LTβR protein
Method: as §2, with “5” for “5 to 6”, “LTβR” for “DcR3”, “T3.01, T3.07, T3.09, T3.14, and T3.18 were each diluted to 50 nM or 200 nM in 1×HBS-EP+buffer solution and diluted by serial dilution.” left out

[5] = target: T3, recombinant human herpes virus entry …; assay: SPR, human HVEM immobilised on the chip (title: PRO121; 6ug/ml human HVEM pH5.5), T3.18 as analyte 0.78125-100 nM
Method: as §2, with “HVEM” for “DcR3”, “100” for “50 nM or 200”

human LTβR on A375 cells [6] = target: T4, human LTβR on A375 cells; assay: flow cytometry on A375 cells, serial dilution from 500 nM, anti-human IgG detection
Method: Specifically, the A375 cell line was prepared by suspending in a FACS buffer solution at 1×10⁵ cells/100 μL, and treated with 100 μL each of T3.01, T3.07, T3.04, and T3.18 prepared by suspending at 500 nM and diluting by serial dilution. The cells were washed twice with a FACS buffer solution. The cells were stained with an anti-human IgG antibody (Biolegend). The expression ratio of the stained cells was measured using BD LSR and analyzed using FlowJo software.

human LTβR on A375 cells [7] = target: T4, human LTβR on A375 cells; assay: flow cytometry on A375 cells, anti-human IgG detection (axis TMEkine-PE); concentration not printed on the sheet
[8] = target: T5, recombinant human lymphotoxin beta …; assay: sandwich ELISA: plate coated with recombinant human LTbR 1 ug/mL, fusion protein from 1 nM in serial dilution, detected with biotinylated recombinant human FAP and streptavidin conjugate, OD 450 nm
Method: (i) The recombinant human LTβR protein was suspended at 1 μg/mL, dispensed in a 96-well immune plate, and treated for 24 hours. [0380] (ii) The wells were washed with a wash solution, and then blocking was performed for 1 hour with 1% BSA (bovine serum albumin, Sigma) solution. [0381] (iii) The wells were washed with a wash solution, and then T3.01, T3.14, T3.16, T3.17, T3.18 and T3.10, or T3.05, T3.06, T3.04, T3.14 and T3.10 were suspended at 1 nM and diluted by serial dilution. The wells were treated with the diluted T3.01, T3.14, T3.16, T3.17, T3.18 and T3.10, or T3.05, T3.06, T3.04, T3.14 and T3.10 for 2 hours. […] (iv) The wells were washed with a wash solution, and then treated with the human recombinant FAP-biotin diluted at 0.5 μg/mL for 2 hours. [0383] (v) The wells were washed with a wash solution, and then treated with streptavidin-RP for 20 minutes. [0384] (vi) The wells were washed with a wash solution, and then treated with a substrate solution for 20 minutes. [0385] (vii) The wells were treated with a stop solution, and the absorbance was measured at 450 nm.

[9] = target: T3, recombinant human herpes virus entry …; assay: sandwich ELISA: plate coated with recombinant human HVEM 1 ug/mL, fusion protein from 1 nM in serial dilution, detected with biotinylated recombinant human FAP and streptavidin conjugate, OD 450 nm
Method: Considering that LIGHT of the fusion protein must bind to the herpes virus entry mediator (HVEM) for the action, it was confirmed that T3.01 binds to the recombinant human HVEM, as follows: [0370] (i) The recombinant human HVEM protein (R&D systems) was suspended at 1 μg/mL, dispensed in a 96-well immune plate, and treated for 24 hours. [0371] (ii) The wells were washed with a wash solution, and then blocking was performed for 1 hour with 1% BSA (bovine serum albumin, Sigma) solution. [0372] (iii) The wells were washed with a wash solution, and then T3.01, T3.14, T3.16, T3.17, T3.18 and T3.10, or T3.05, T3.06, T3.04, T3.14 and T3.10 were suspended at 1 nM and diluted by serial dilution. The wells were treated with the diluted T3.01, T3.14, T3.16, T3.17, T3.18 and T3.10, or T3.05, T3.06, T3.04, T3.14 and T3.10 for 2 hours. [0373] (iv) The wells were washed with a wash solution, and then treated with the human recombinant FAP-biotin diluted at 0.5 μg/mL for 2 hours. [0374] (v) The wells were washed with a wash solution, and then treated with streptavidin-RP for 20 minutes. [0375] (vi) The wells were washed with a wash solution, and then treated with a substrate solution for 20 minutes. [0376] (vii) The wells were treated with a stop solution, and the absorbance was measured at 450 nm.

T5 sequence (P36941 28-227 limits assumed): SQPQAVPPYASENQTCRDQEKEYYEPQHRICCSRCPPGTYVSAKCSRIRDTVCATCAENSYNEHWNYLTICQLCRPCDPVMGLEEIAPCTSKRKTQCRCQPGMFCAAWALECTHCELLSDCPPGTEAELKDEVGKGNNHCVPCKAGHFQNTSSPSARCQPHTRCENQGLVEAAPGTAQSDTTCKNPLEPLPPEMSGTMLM
T4 sequence (P36941 31-435): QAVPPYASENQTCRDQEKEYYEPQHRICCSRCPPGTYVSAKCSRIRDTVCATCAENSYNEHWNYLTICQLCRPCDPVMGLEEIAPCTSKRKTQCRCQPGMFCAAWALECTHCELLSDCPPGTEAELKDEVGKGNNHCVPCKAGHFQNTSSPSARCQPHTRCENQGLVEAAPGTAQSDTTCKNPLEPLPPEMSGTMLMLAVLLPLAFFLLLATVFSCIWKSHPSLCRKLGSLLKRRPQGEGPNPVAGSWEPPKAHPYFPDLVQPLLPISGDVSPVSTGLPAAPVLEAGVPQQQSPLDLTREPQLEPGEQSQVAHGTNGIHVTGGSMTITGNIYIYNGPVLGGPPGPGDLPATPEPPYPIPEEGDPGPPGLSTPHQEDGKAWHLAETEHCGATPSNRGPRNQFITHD

Binder | percent of cells in the positive gate [1] [%] | percent of cells bound [2] [%] | IL-8 secretion of A375 cells, EC50 (FIG. 15b) (human LTβR on A375 cells [3]) [nM] | Kd (human DcR3) [nM] | koff (human DcR3) [s⁻¹] | kon (human DcR3) [M⁻¹ s⁻¹] | Kd [4] [nM] | koff [4] [s⁻¹] | kon [4] [M⁻¹ s⁻¹] | binding result [5] | percent of cells bound (human LTβR on A375 cells [6]) [%] | binding result (human LTβR on A375 cells [7]) | binding result [8] | binding result [9]
B1 | 99.8 | ≥ 99 | 0.0778 | 7.93 | 0.0017 | 214000 | 0.245 | 0.000315 | 1.29e+06 | no binding (tested: 100 nM) | ≥ 96 |  |  | 
B2 | 99.3 | ≥ 99 |  |  |  |  |  |  |  |  |  | no binding | no binding (tested: 1000 pM) | no binding (tested: 1000 pM)
